For one substance, Kd and kon results are on record in US8034769.

By Kd is commonly meant the constant that tells how readily two partners part at equilibrium. Read a high Kd as a looser complex. Usually kon stands for the second-order rate constant of association. A higher kon goes with fast association.

Assay [1] has as its target CD4 (UniProt P01730). The experiment in a line: SPR, BIACORE 2000, CD4 immobilized on C1 chip. In general terms: In SPR one partner is held on a chip, and binding of the other changes the refractive index at the surface.
Assay [2] addresses HIV-GP120 (HIV-1). The experiment in a line: SPR, BIACORE 2000, HIV-GP120 immobilized on C1 chip.

oxidized antithrombin III, sequence (P01008 33-464): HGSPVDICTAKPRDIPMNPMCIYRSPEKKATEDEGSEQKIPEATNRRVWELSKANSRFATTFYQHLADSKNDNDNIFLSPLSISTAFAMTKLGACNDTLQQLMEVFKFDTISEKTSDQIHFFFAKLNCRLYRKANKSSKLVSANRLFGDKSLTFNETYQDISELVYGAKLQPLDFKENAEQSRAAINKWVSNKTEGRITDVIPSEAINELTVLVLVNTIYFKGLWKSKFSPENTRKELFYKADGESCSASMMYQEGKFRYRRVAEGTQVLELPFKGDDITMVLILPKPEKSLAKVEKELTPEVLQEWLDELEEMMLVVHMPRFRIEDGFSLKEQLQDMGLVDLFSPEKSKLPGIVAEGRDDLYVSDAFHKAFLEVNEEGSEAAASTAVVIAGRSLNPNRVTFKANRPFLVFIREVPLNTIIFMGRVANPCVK

On to oxidized antithrombin III, for which the Kd in assay [1] worked out at 1.63 nM; in assay [2] it was 0.701 nM. In addition, the kon in assay [1] is 713000 M⁻¹ s⁻¹; in assay [2], 638000 M⁻¹ s⁻¹.
